# Data reported in US20220136027.
# T1: pentapeptide Gln-Pro-Gln-Gln-Pro
# T1 chain: QPQQP
# B1: FvePro4 (protein)
# chain: ASRLSSRRWASSENMTKLDTTSRLNRLRGLMKERNVQIYIVPSEDSHSSEYIADCDARRAYISGFTGSAGCAVVTLESAALATDGRYFNQATSQLDSNWTLLKQGLQDVPTWQDWSAEQSSGGKNVGVDPTLISGSTAKNLAEKIRKNGGAELLPVDGNLVDLVWGDERPSRPSEQVIIQPDELAGESVLNKLTKVRQELEKKHSPGFLVSMLDEIAWLFNLRGNDIPYNPVFFAYATVTPDAAKLYIDEAKLDDKCRSHLTSNKVDIKPYETIFDDAQALHAAHAAKSKSGDKVPTGNFLISNKGSWALKRALGGDSSVDEIRSLIGDAKAIKTEAELKGMRDCHVRDGAALIQYFAWLEDQLVNKKATLDEVQAADKLEELRKVKKDFVGLSFPTISSTGANAAIIHYGPERGNCATIDPEAIYLCDSGAQYRDGTTDTTRTLHFGKPTEAEREAYTLVLKGHISLDQAIFPKGTTGFALDSLARQHLWKNGLDYRHGTGHGVGSFLNVHEGPIGIGTRVQYAEVALAPGNVLSNEPGYYEDGKYGIRIENMVLVKEVKTKHSFGDKPFLGFEYVTLVPYCRNLIDTTLLTSEEKEWLNTYNAKVLEKTQEYFEGDDVTLAWLKRETQHVE
# Molecular target: T1, pentapeptide Gln-Pro-Gln-Gln-Pro
protein,measurement,value
B1,"pentapeptide hydrolysis (ninhydrin reaction, A570)",all purified proteases are capable of hydrolyzing pentapeptide Gln-Pro-Gln-Gln-Pro
